According to US20170313750A1 (Novo Nordisk, published 2017):
Positions count from the first letter of the chain named. Numbered stars: 1 amine (or outer) side, 2 acyl side, 3 side chain; on linkers, the order of the positions; unused ones are H or OH. Side chains are listed from the residue outwards. * marks the point of attachment. Hexadecanoyl(16-SO3H) = O=C(CCCCCCCCCCCCCCCS(=O)(=O)O)*; C18 diacid = O=C(O)CCCCCCCCCCCCCCCCC(=O)*; γGlu = O=C(O)[C@H](CCC(=O)[*:2])N[*:1]; Isovaleryl = CC(C)CC(=O)*; AEEA = NCCOCCOCC(=O)O

B1: N{alpha-4}-(3-Methylbutanoyl)-N{Epsilon-7}-[2-[2-[2-[[(4S)-4-carboxy-4-(13-carboxytridecanoylamino)butanoyl]amino]ethoxy]ethoxy]acetyl]-[Arg4,Lys7,Pro9,Gln18,Ty … (peptide)
peptide: RPEKPPEDASPEELQRYYASLRHYYNWLTRQRY
modifications: N-terminal alpha-amino (position 4): 3-methylbutanoyl; Lys7 (hPYY(1-36) numbering) epsilon-amino: [2-[2-[2-[[(4S)-4-carboxy-4-(13-carboxytridecanoylamino)butanoyl]amino]ethoxy]ethoxy]acetyl]; C-terminal amide
notes: also called Compound 71; 71
B2: N{alpha-4}-(3-Methylbutanoyl)-N{Epsilon-7}-[(4S)-4-carboxy-4-(17-carboxy-heptadecanoylamino)butanoyl]-[Arg4,Lys7,Thr9,Gln18,Val22,Tyr28,Trp30,Leu31]hPYY(4-36) (peptide)
peptide: B1 peptide with P6T, A19V
HELM: PEPTIDE1{[CC(C)CC(=O)[*:2]].R.P.E.K.P.T.E.D.A.S.P.E.E.L.Q.R.Y.Y.V.S.L.R.H.Y.Y.N.W.L.T.R.Q.R.Y.[am]}|PEPTIDE2{[O=C(O)CCCCCCCCCCCCCCCCC(=O)[*:2]].[gGlu]}$PEPTIDE1,PEPTIDE2,5:R3-2:R2$$$V2.0
SMILES: CC(C)CC(=O)N[C@@H](CCCNC(=N)N)C(=O)N1CCC[C@H]1C(=O)N[C@@H](CCC(=O)O)C(=O)N[C@@H](CCCCNC(=O)CC[C@H](NC(=O)CCCCCCCCCCCCCCCCC(=O)O)C(=O)O)C(=O)N1CCC[C@H]1C(=O)N[C@H](C(=O)N[C@@H](CCC(=O)O)C(=O)N[C@@H](CC(=O)O)C(=O)N[C@@H](C)C(=O)N[C@@H](CO)C(=O)N1CCC[C@H]1C(=O)N[C@@H](CCC(=O)O)C(=O)N[C@@H](CCC(=O)O)C(=O)N[C@@H](CC(C)C)C(=O)N[C@@H](CCC(N)=O)C(=O)N[C@@H](CCCNC(=N)N)C(=O)N[C@@H](Cc1ccc(O)cc1)C(=O)N[C@@H](Cc1ccc(O)cc1)C(=O)N[C@H](C(=O)N[C@@H](CO)C(=O)N[C@@H](CC(C)C)C(=O)N[C@@H](CCCNC(=N)N)C(=O)N[C@@H](Cc1c[nH]cn1)C(=O)N[C@@H](Cc1ccc(O)cc1)C(=O)N[C@@H](Cc1ccc(O)cc1)C(=O)N[C@@H](CC(N)=O)C(=O)N[C@@H](Cc1c[nH]c2ccccc12)C(=O)N[C@@H](CC(C)C)C(=O)N[C@H](C(=O)N[C@@H](CCCNC(=N)N)C(=O)N[C@@H](CCC(N)=O)C(=O)N[C@@H](CCCNC(=N)N)C(=O)N[C@@H](Cc1ccc(O)cc1)C(N)=O)[C@@H](C)O)C(C)C)[C@@H](C)O
notes: also called Compound 44; 44
B3: N{alpha-4}-(3-Methylbutanoyl)-N{Epsilon-10}-[(4S)-4-carboxy-4-[[2-[2-[2-[[(4S)-4-carboxy-4-(17-carboxyheptadecanoylamino)butanoyl]amino]ethoxy]ethoxy]-acetyl]am … (peptide)
peptide: Isovaleryl-RPEAPGK([γGlu-AEEA-γGlu-C18 diacid])DASPEELQRYYAELRHYYNWLTRQRY-NH2
SMILES: CC(C)CC(=O)N[C@@H](CCCNC(=N)N)C(=O)N1CCC[C@H]1C(=O)N[C@@H](CCC(=O)O)C(=O)N[C@@H](C)C(=O)N1CCC[C@H]1C(=O)NCC(=O)N[C@@H](CCCCNC(=O)CC[C@H](NC(=O)COCCOCCNC(=O)CC[C@H](NC(=O)CCCCCCCCCCCCCCCCC(=O)O)C(=O)O)C(=O)O)C(=O)N[C@@H](CC(=O)O)C(=O)N[C@@H](C)C(=O)N[C@@H](CO)C(=O)N1CCC[C@H]1C(=O)N[C@@H](CCC(=O)O)C(=O)N[C@@H](CCC(=O)O)C(=O)N[C@@H](CC(C)C)C(=O)N[C@@H](CCC(N)=O)C(=O)N[C@@H](CCCNC(=N)N)C(=O)N[C@@H](Cc1ccc(O)cc1)C(=O)N[C@@H](Cc1ccc(O)cc1)C(=O)N[C@@H](C)C(=O)N[C@@H](CCC(=O)O)C(=O)N[C@@H](CC(C)C)C(=O)N[C@@H](CCCNC(=N)N)C(=O)N[C@@H](Cc1c[nH]cn1)C(=O)N[C@@H](Cc1ccc(O)cc1)C(=O)N[C@@H](Cc1ccc(O)cc1)C(=O)N[C@@H](CC(N)=O)C(=O)N[C@@H](Cc1c[nH]c2ccccc12)C(=O)N[C@@H](CC(C)C)C(=O)N[C@H](C(=O)N[C@@H](CCCNC(=N)N)C(=O)N[C@@H](CCC(N)=O)C(=O)N[C@@H](CCCNC(=N)N)C(=O)N[C@@H](Cc1ccc(O)cc1)C(N)=O)[C@@H](C)O
notes: also called Compound 53; 53
B4: N{alpha-4}-(3-Methylbutanoyl)-N{Epsilon-7}-[(4S)-4-carboxy-4-[[(4S)-4-carboxy-4-(19-carboxynonadecanoylamino)butanoyl]amino]butanoyl]-[Arg4,Lys7,Pro9,Gln18, … (peptide)
peptide: B1 peptide
modifications: N-terminal alpha-amino (position 4): 3-methylbutanoyl; Lys7 (hPYY(1-36) numbering) epsilon-amino: [(4S)-4-carboxy-4-[[(4S)-4-carboxy-4-(19-carboxynonadecanoylamino)butanoyl]amino]butanoyl]; C-terminal amide
notes: also called Compound 12; 12
B5: N{alpha-4}-(3-Methylbutanoyl)-N{Epsilon-10}-[(4S)-4-carboxy-4-[[2-[2-[2-[[(4S)-4-carboxy-4-(17-carboxyheptadecanoylamino)butanoyl]amino]ethoxy]ethoxy]-acetyl]am … (peptide)
peptide: Isovaleryl-RPEAPGK([γGlu-AEEA-γGlu-C18 diacid])DASPEELQRYYESLRHYYNWLTRQRY-NH2
SMILES: CC(C)CC(=O)N[C@@H](CCCNC(=N)N)C(=O)N1CCC[C@H]1C(=O)N[C@@H](CCC(=O)O)C(=O)N[C@@H](C)C(=O)N1CCC[C@H]1C(=O)NCC(=O)N[C@@H](CCCCNC(=O)CC[C@H](NC(=O)COCCOCCNC(=O)CC[C@H](NC(=O)CCCCCCCCCCCCCCCCC(=O)O)C(=O)O)C(=O)O)C(=O)N[C@@H](CC(=O)O)C(=O)N[C@@H](C)C(=O)N[C@@H](CO)C(=O)N1CCC[C@H]1C(=O)N[C@@H](CCC(=O)O)C(=O)N[C@@H](CCC(=O)O)C(=O)N[C@@H](CC(C)C)C(=O)N[C@@H](CCC(N)=O)C(=O)N[C@@H](CCCNC(=N)N)C(=O)N[C@@H](Cc1ccc(O)cc1)C(=O)N[C@@H](Cc1ccc(O)cc1)C(=O)N[C@@H](CCC(=O)O)C(=O)N[C@@H](CO)C(=O)N[C@@H](CC(C)C)C(=O)N[C@@H](CCCNC(=N)N)C(=O)N[C@@H](Cc1c[nH]cn1)C(=O)N[C@@H](Cc1ccc(O)cc1)C(=O)N[C@@H](Cc1ccc(O)cc1)C(=O)N[C@@H](CC(N)=O)C(=O)N[C@@H](Cc1c[nH]c2ccccc12)C(=O)N[C@@H](CC(C)C)C(=O)N[C@H](C(=O)N[C@@H](CCCNC(=N)N)C(=O)N[C@@H](CCC(N)=O)C(=O)N[C@@H](CCCNC(=N)N)C(=O)N[C@@H](Cc1ccc(O)cc1)C(N)=O)[C@@H](C)O
notes: also called Compound 50; 50
B6: N{alpha-4}-(3-Methylbutanoyl)-N{Epsilon-10}-[(4S)-4-carboxy-4-[[2-[2-[2-[[(4S)-4-carboxy-4-(16-sulfohexadecanoylamino)butanoyl]amino]ethoxy]-ethoxy]acetyl]amino … (peptide)
peptide: Isovaleryl-RPEAPPK([γGlu-AEEA-γGlu-Hexadecanoyl(16-SO3H)])DASPEELQRYYASLRHYYNWLTRQRY-NH2
SMILES: CC(C)CC(=O)N[C@@H](CCCNC(=N)N)C(=O)N1CCC[C@H]1C(=O)N[C@@H](CCC(=O)O)C(=O)N[C@@H](C)C(=O)N1CCC[C@H]1C(=O)N1CCC[C@H]1C(=O)N[C@@H](CCCCNC(=O)CC[C@H](NC(=O)COCCOCCNC(=O)CC[C@H](NC(=O)CCCCCCCCCCCCCCCS(=O)(=O)O)C(=O)O)C(=O)O)C(=O)N[C@@H](CC(=O)O)C(=O)N[C@@H](C)C(=O)N[C@@H](CO)C(=O)N1CCC[C@H]1C(=O)N[C@@H](CCC(=O)O)C(=O)N[C@@H](CCC(=O)O)C(=O)N[C@@H](CC(C)C)C(=O)N[C@@H](CCC(N)=O)C(=O)N[C@@H](CCCNC(=N)N)C(=O)N[C@@H](Cc1ccc(O)cc1)C(=O)N[C@@H](Cc1ccc(O)cc1)C(=O)N[C@@H](C)C(=O)N[C@@H](CO)C(=O)N[C@@H](CC(C)C)C(=O)N[C@@H](CCCNC(=N)N)C(=O)N[C@@H](Cc1c[nH]cn1)C(=O)N[C@@H](Cc1ccc(O)cc1)C(=O)N[C@@H](Cc1ccc(O)cc1)C(=O)N[C@@H](CC(N)=O)C(=O)N[C@@H](Cc1c[nH]c2ccccc12)C(=O)N[C@@H](CC(C)C)C(=O)N[C@H](C(=O)N[C@@H](CCCNC(=N)N)C(=O)N[C@@H](CCC(N)=O)C(=O)N[C@@H](CCCNC(=N)N)C(=O)N[C@@H](Cc1ccc(O)cc1)C(N)=O)[C@@H](C)O
notes: also called Compound 69; 69

Tests used:
[1] = target: T1, human Y2 receptor (P49146, NPY2R_HUMAN, Uniprot) (human, UniProt P49146 1-381); experiment: cell-based or functional assay
T1 sequence (looked up): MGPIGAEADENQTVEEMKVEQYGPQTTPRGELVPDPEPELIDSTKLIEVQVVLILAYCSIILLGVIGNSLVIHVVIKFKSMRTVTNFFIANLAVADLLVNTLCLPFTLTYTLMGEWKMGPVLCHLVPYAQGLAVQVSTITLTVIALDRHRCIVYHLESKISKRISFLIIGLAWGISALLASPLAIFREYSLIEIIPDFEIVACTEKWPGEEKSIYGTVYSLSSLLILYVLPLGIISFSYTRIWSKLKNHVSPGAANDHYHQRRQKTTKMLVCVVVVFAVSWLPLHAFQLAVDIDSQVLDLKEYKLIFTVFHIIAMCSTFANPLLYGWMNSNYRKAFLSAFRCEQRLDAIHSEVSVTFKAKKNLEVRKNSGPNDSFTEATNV

[2] = target: T1, human Y2 receptor (P49146, NPY2R_HUMAN, …); experiment: SPA vs [125I]-PYY(1-36)
Description: (§1) Human Y receptor SPA binding assay were performed in white 96-well plates in a total volume of 200 μl per well.
(§2) Plates were sealed and incubated at +25° C. for 2 hours in a plate shaker set at 400 rpm and thereafter centrifuged at 1500 rpm for 10 minutes prior to reading of luminescence on a microplate scintillation and luminescence counter.

[3] = target: T2, human Y4 receptor (P50391, NPY4R_HUMAN, Uniprot) (human, UniProt P50391 1-375); experiment: SPA vs [125I]-PP
T2 construct: whole, on cells; Assayed as membrane preparations of the expressing cells
Description: as §1, §2

[4] = target: T3, human Y5 receptor (Q15761, NPY5R_HUMAN, Uniprot) (human, UniProt Q15761 1-445); experiment: SPA vs [125I]-PYY(1-36)
T3 construct: whole, on cells; Assayed as membrane preparations of the expressing cells
T3 sequence (looked up): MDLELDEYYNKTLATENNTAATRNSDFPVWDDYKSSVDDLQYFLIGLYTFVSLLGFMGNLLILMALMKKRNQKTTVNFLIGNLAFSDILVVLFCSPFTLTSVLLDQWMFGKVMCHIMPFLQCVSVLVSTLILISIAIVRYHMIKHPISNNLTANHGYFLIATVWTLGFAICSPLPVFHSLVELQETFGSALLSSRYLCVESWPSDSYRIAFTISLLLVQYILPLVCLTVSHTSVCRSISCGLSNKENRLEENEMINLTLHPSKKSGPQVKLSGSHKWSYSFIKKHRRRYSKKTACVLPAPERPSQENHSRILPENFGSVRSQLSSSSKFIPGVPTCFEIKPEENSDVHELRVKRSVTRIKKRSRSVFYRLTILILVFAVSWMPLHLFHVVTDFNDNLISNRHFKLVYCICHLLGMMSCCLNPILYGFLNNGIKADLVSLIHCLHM
Description: as §1, §2

[5] = target: T2, human Y4 receptor (P50391, NPY4R_HUMAN, …); experiment: ratio of SPA values, Y2 as reference
Description: as §1, §2

[6] = target: T3, human Y5 receptor (Q15761, NPY5R_HUMAN, …); experiment: ratio of SPA values, Y2 as reference
Description: as §1, §2

T2 sequence (P50391 whole entry, one chain of several): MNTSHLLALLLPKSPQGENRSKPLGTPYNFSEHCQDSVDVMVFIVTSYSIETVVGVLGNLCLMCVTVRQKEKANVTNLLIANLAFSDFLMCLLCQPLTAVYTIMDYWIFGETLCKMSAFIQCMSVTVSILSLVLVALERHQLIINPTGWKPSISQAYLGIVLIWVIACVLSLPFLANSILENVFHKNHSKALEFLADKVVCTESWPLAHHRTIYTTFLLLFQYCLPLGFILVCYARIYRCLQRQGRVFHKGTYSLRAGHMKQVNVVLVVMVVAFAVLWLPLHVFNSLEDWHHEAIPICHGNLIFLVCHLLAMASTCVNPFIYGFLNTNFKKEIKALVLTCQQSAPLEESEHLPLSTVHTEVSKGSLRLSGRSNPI

Row | Binder | Y2 EC50, Actone functional potency assay [1] [nM] | Ki [2] [nM] | Ki [3] [nM] | Ki [4] [nM] | Ratio of Y4/Y2 EC50 values [5] | Ratio of Y5/Y2 EC50 values [6]
1 | B1 | 0.5 | 0.51 | – | – | – | –
2 | B2 | 1.35 | 0.33 | 6670 | 470 | 20200 | 1420
3 | B3 | 0.77 | 1.15 | 9290 | 452 | 8080 | 393
4 | B4 | 4.35 | 1.1 | – | – | – | –
5 | B5 | – | 3.3 | – | 122 | – | –
6 | Isovaleryl-RPEK([γGlu-C18 diacid])PTEDASPEELQRYYQSLRHYYNWLTRQRY-NH2 (also called Compound 43) | 0.77 | – | 6400 | 509 | – | –
7 | B6 | – | 0.94 | 5690 | 146 | – | –
8 | Isovaleryl-RPEAPGK([AEEA-AEEA-γGlu-C18 diacid])DASPEELQRYYAELRHYYNWLTRQRY-NH2 (also called Compound 52; 52) | – | 0.66 | 5690 | 182 | 8620 | 275
9 | Isovaleryl-RPEAPGK([γGlu-AEEA-γGlu-C18 diacid])DASPEELQRYYASLRHYYNWLTRQRY-NH2 (also called Compound 59; 59) | – | – | – | 279 | – | –
